In article PMC5339894, “G196 epitope tag system: a novel monoclonal antibody, G196, recognizes the small, soluble peptide DLVPR with high affinity” (Scientific Reports, 2017):

B1: mAb G196 [mouse] / biotin-SGSGSDLVPRG [modified: biotin on the N-terminus; biotin on the N-terminus] (parent complex)
chain 1: QVKLQESGAELVKPGASVKLSCKASGYTFTNYWMHWVKLRPGQGFEWIGEINPSNGGSNYNEKFKRKATLTVDKSSSTAYMQLSSLTSEDSAVFYCSIWDSYFDYWGQGTTLTVSSAKTTPPSVYPLAPGSAAQTNSMVTLGCLVKGYFPEPVTVTWNSGSLSSGVHTFPAVLQSDLYTLSSSVTVPSSPWPSETVTCNVAHPASSTKVDKKIVPRDC
chain 2: NIVMTQSPKSMSMSVGERVTLTCKASENVVTYVSWYQQKPEQSPKLLIYGASNRYTGVPDRFTGSGSATDFTLTISSVQAEDLADYHCGQGYSYPYTFGGGTKLEIKRADAAPTVSIFPPSSEQLTSGGASVVCFLNNFYPKDINVKWKIDGSERQNGVLNSWTDQDSKDSTYSMSSTLTLTKDEYERHNSYTCEATHKTSTSPIVKSFNRNEC
chain 3: SGSGSDLVPRG

Variants of: B1
Assay: permutation ELISA (densitometry of spots); parent: 1; read off a plot

Which ratio to parent does the source give for chain 3 V8E here?
Its ratio to parent is ~0.07.

Which ratio to parent does the source give for chain 3 V8F here?
Its ratio to parent is ~0.04.

For chain 3 V8R, which ratio to parent is on record?
The ratio to parent was ~0.07.

Which ratio to parent does the source give for chain 3 V8P here?
Its ratio to parent is ~0.04.

chain 3 V8D was tested. Which ratio to parent did it give?
The ratio to parent was ~0.03.

For chain 3 V8N, which ratio to parent is on record?
The ratio to parent was ~0.11.

chain 3 V8S was tested. Which ratio to parent did it give?
The ratio to parent was ~0.44.

With chain 3 V8L as the variant, how does the ratio to parent read?
The ratio to parent was ~0.13.

How did the ratio to parent turn out when chain 3 V8W was run?
Its ratio to parent is ~0.03.

For chain 3 V8K, which ratio to parent is on record?
The ratio to parent was ~0.05.

How did the ratio to parent turn out when chain 3 V8M was run?
Its ratio to parent is ~0.09.

chain 3 V8H was tested. Which ratio to parent did it give?
The ratio to parent was ~0.08.

How did the ratio to parent turn out when chain 3 V8Q was run?
The ratio to parent was ~0.16.

Which ratio to parent does the source give for chain 3 V8A here?
The ratio to parent was ~0.82.

chain 3 V8C was tested. Which ratio to parent did it give?
Its ratio to parent is ~0.08.

With chain 3 V8Y as the variant, how does the ratio to parent read?
The ratio to parent was ~0.05.

Which ratio to parent does the source give for chain 3 V8I here?
The ratio to parent was ~0.96.

With chain 3 V8G as the variant, how does the ratio to parent read?
The ratio to parent was ~0.03.

chain 3 V8T was tested. Which ratio to parent did it give?
Its ratio to parent is ~0.95.

For chain 3 R10H, which ratio to parent is on record?
Its ratio to parent is ~0.38.

For chain 3 P9H, which ratio to parent is on record?
The ratio to parent was ~0.74.

How did the ratio to parent turn out when chain 3 P9M was run?
The ratio to parent was ~0.82.

chain 3 P9L was tested. Which ratio to parent did it give?
Its ratio to parent is ~0.72.

chain 3 P9S was tested. Which ratio to parent did it give?
Its ratio to parent is ~0.81.

Which ratio to parent does the source give for chain 3 P9Y here?
Its ratio to parent is ~0.89.

chain 3 P9A was tested. Which ratio to parent did it give?
Its ratio to parent is ~0.98.

chain 3 P9F was tested. Which ratio to parent did it give?
Its ratio to parent is ~0.86.

With chain 3 P9N as the variant, how does the ratio to parent read?
Its ratio to parent is ~0.76.

Which ratio to parent does the source give for chain 3 P9W here?
Its ratio to parent is ~0.82.

How did the ratio to parent turn out when chain 3 P9E was run?
The ratio to parent was ~0.86.

With chain 3 P9K as the variant, how does the ratio to parent read?
The ratio to parent was ~0.4.

For chain 3 P9V, which ratio to parent is on record?
Its ratio to parent is ~0.87.

Which ratio to parent does the source give for chain 3 P9C here?
Its ratio to parent is ~0.78.

How did the ratio to parent turn out when chain 3 P9I was run?
Its ratio to parent is ~0.85.

chain 3 P9Q was tested. Which ratio to parent did it give?
Its ratio to parent is ~0.72.

Which ratio to parent does the source give for chain 3 P9R here?
Its ratio to parent is ~0.74.

Which ratio to parent does the source give for chain 3 P9G here?
Its ratio to parent is ~0.67.

For chain 3 P9D, which ratio to parent is on record?
Its ratio to parent is ~0.78.

chain 3 P9T was tested. Which ratio to parent did it give?
Its ratio to parent is ~0.59.

For chain 3 D6K, which ratio to parent is on record?
Its ratio to parent is ~0.05.

For chain 3 D6I, which ratio to parent is on record?
The ratio to parent was ~0.08.

How did the ratio to parent turn out when chain 3 D6Y was run?
Its ratio to parent is ~0.11.

How did the ratio to parent turn out when chain 3 D6F was run?
The ratio to parent was ~0.09.

For chain 3 D6M, which ratio to parent is on record?
The ratio to parent was ~0.11.

chain 3 D6V was tested. Which ratio to parent did it give?
Its ratio to parent is ~0.04.

Which ratio to parent does the source give for chain 3 D6C here?
The ratio to parent was ~0.26.

chain 3 D6R was tested. Which ratio to parent did it give?
Its ratio to parent is ~0.07.

Which ratio to parent does the source give for chain 3 D6W here?
The ratio to parent was ~0.12.

For chain 3 D6S, which ratio to parent is on record?
Its ratio to parent is ~0.95.

How did the ratio to parent turn out when chain 3 D6A was run?
The ratio to parent was ~0.38.

How did the ratio to parent turn out when chain 3 D6E was run?
The ratio to parent was ~1.

Which ratio to parent does the source give for chain 3 D6L here?
The ratio to parent was ~0.06.

For chain 3 D6H, which ratio to parent is on record?
Its ratio to parent is ~0.15.

Which ratio to parent does the source give for chain 3 D6G here?
Its ratio to parent is ~0.7.

chain 3 D6N was tested. Which ratio to parent did it give?
Its ratio to parent is ~0.25.

With chain 3 D6P as the variant, how does the ratio to parent read?
The ratio to parent was ~0.16.

Which ratio to parent does the source give for chain 3 D6Q here?
Its ratio to parent is ~0.48.

chain 3 D6T was tested. Which ratio to parent did it give?
Its ratio to parent is ~0.19.

For chain 3 L7E, which ratio to parent is on record?
The ratio to parent was ~0.08.

chain 3 L7M was tested. Which ratio to parent did it give?
Its ratio to parent is ~0.84.

Which ratio to parent does the source give for chain 3 L7D here?
The ratio to parent was ~0.11.

How did the ratio to parent turn out when chain 3 L7N was run?
Its ratio to parent is ~0.6.

Which ratio to parent does the source give for chain 3 L7K here?
Its ratio to parent is ~0.1.

With chain 3 L7Q as the variant, how does the ratio to parent read?
Its ratio to parent is ~0.07.

chain 3 L7W was tested. Which ratio to parent did it give?
Its ratio to parent is ~0.05.

chain 3 L7F was tested. Which ratio to parent did it give?
Its ratio to parent is ~0.72.

With chain 3 L7Y as the variant, how does the ratio to parent read?
Its ratio to parent is ~0.15.

With chain 3 L7V as the variant, how does the ratio to parent read?
Its ratio to parent is ~0.11.

How did the ratio to parent turn out when chain 3 L7R was run?
The ratio to parent was ~0.13.

With chain 3 L7T as the variant, how does the ratio to parent read?
Its ratio to parent is ~0.11.

Which ratio to parent does the source give for chain 3 L7G here?
Its ratio to parent is ~0.04.

How did the ratio to parent turn out when chain 3 L7I was run?
Its ratio to parent is ~0.99.

chain 3 L7A was tested. Which ratio to parent did it give?
The ratio to parent was ~0.08.

For chain 3 L7C, which ratio to parent is on record?
The ratio to parent was ~0.06.

For chain 3 L7H, which ratio to parent is on record?
Its ratio to parent is ~0.62.

chain 3 L7S was tested. Which ratio to parent did it give?
The ratio to parent was ~0.06.

With chain 3 L7P as the variant, how does the ratio to parent read?
The ratio to parent was ~0.02.
